# In the RNAGym collection of RNA variant scans (doi:10.7554/elife.80360):
# B1: CPEB3 Ribozyme (parent)
# chain: GGGGGCCACAGCAGAAGCGUUCACGUCGCGGCCCCUGUCAGAUUCUGGUGAAUCUGCGAAUUCUGCUGU
# Variants of: B1
# Test: self-cleavage, relative activity (ratio to wild type); higher = more cleavage; co-transcriptional
row,Variant,self-cleavage
1,GGGGUCCACAGCAGAAGCGUUCACGUCGCGGCCCCUGUCAGAUUCUGGUGAAUCUGAGAAUUCUGCUGU [G5U C57A],0.11
2,GGGGUCCACAGCAGAAGCGUUCACGUCGCGGCCCCUGUCAGAUUCUGGUGAAUUUGCGAAUUCUGCUGU [G5U C54U],0.231
3,GGGGUCCACAGCAGAAGCGUUCACGUCGCGGCCCCUGUCAGAUUCUGGUGAAUCUGCGUAUUCUGCUGU [G5U A59U],0.125
4,GGGGUCCACAGCAGAAGCGUUCAUGUCGCGGCCCCUGUCAGAUUCUGGUGAAUCUGCGAAUUCUGCUGU [G5U C24U],0.0968
5,GGGGUCCACAGCAGAAGCGUUCAGGUCGCGGCCCCUGUCAGAUUCUGGUGAAUCUGCGAAUUCUGCUGU [G5U C24G],0.0967
6,GGGGUCCACAGCAGAAGCGUUCACGUCGCGGCCCCUGUUAGAUUCUGGUGAAUCUGCGAAUUCUGCUGU [G5U C39U],0.101
7,GGGGUCCACAGCAGAAGCGUUCACGUGGCGGCCCCUGUCAGAUUCUGGUGAAUCUGCGAAUUCUGCUGU [G5U C27G],0.0619
8,GGGGUCCACAGCAGAAGCGUUCACGUUGCGGCCCCUGUCAGAUUCUGGUGAAUCUGCGAAUUCUGCUGU [G5U C27U],0.032
9,GGGGUCCACAGCAGAAGAGUUCACGUCGCGGCCCCUGUCAGAUUCUGGUGAAUCUGCGAAUUCUGCUGU [G5U C18A],0.0315
10,GGGGUCCACAGCAGAAGGGUUCACGUCGCGGCCCCUGUCAGAUUCUGGUGAAUCUGCGAAUUCUGCUGU [G5U C18G],0.0898
11,GGGGUCCAUAGCAGAAGCGUUCACGUCGCGGCCCCUGUCAGAUUCUGGUGAAUCUGCGAAUUCUGCUGU [G5U C9U],0.877
12,GGGGUCCAAAGCAGAAGCGUUCACGUCGCGGCCCCUGUCAGAUUCUGGUGAAUCUGCGAAUUCUGCUGU [G5U C9A],0.716
13,GGGGUCCACAGCAGAAGCGUUCACGUCGCGGCCCCUGUCAGAUUCUGGUGAAUCUGCGAAUUGUGCUGU [G5U C63G],0.0897
14,GGGGUCCACAGCAGAAGCGUUCACGUCGCGGCCCCUGUCAGAUUCUGGUGAAUCUGCGAAUUAUGCUGU [G5U C63A],0.114
15,GGGGUCCACAGCAGAAGCGUUCACGUCGCGGCCCCUGUCAGAUUCUGGUGAAUCUGCGAAUUUUGCUGU [G5U C63U],0.24
16,GGGGUCCACAGCAGAAACGUUCACGUCGCGGCCCCUGUCAGAUUCUGGUGAAUCUGCGAAUUCUGCUGU [G5U G17A],0.082
17,GGGGUCCACAGCAAAAGCGUUCACGUCGCGGCCCCUGUCAGAUUCUGGUGAAUCUGCGAAUUCUGCUGU [G5U G14A],0.078
18,GGGGUCCACAGCAUAAGCGUUCACGUCGCGGCCCCUGUCAGAUUCUGGUGAAUCUGCGAAUUCUGCUGU [G5U G14U],0.0546
19,GGGGUCCACAGCAGAGGCGUUCACGUCGCGGCCCCUGUCAGAUUCUGGUGAAUCUGCGAAUUCUGCUGU [G5U A16G],0.14
20,GGGGUCCACAGCAGAUGCGUUCACGUCGCGGCCCCUGUCAGAUUCUGGUGAAUCUGCGAAUUCUGCUGU [G5U A16U],0.127

row,Variant,self-cleavage
1,GGGGUCCACAGCAGAAGCGUUCACGUCGCGGCCGCUGUCAGAUUCUGGUGAAUCUGCGAAUUCUGCUGU [G5U C34G],0.0508
2,GGGGUCCACAGCAGAAGCGUUCACGUCGCGGCCACUGUCAGAUUCUGGUGAAUCUGCGAAUUCUGCUGU [G5U C34A],0.0978
3,GGGGUCCACAUCAGAAGCGUUCACGUCGCGGCCCCUGUCAGAUUCUGGUGAAUCUGCGAAUUCUGCUGU [G5U G11U],0.098
4,GGGGUCCACAGCAGAAGCGUUCACGUCGAGGCCCCUGUCAGAUUCUGGUGAAUCUGCGAAUUCUGCUGU [G5U C29A],0.0808
5,GGGGUCCACAGCAGAAGCGUUCACGUCGGGGCCCCUGUCAGAUUCUGGUGAAUCUGCGAAUUCUGCUGU [G5U C29G],0.0724
6,GGGGUCCACGGCAGAAGCGUUCACGUCGCGGCCCCUGUCAGAUUCUGGUGAAUCUGCGAAUUCUGCUGU [G5U A10G],0.543
7,GGGGUCCACCGCAGAAGCGUUCACGUCGCGGCCCCUGUCAGAUUCUGGUGAAUCUGCGAAUUCUGCUGU [G5U A10C],0.604
8,GGGGUCCACUGCAGAAGCGUUCACGUCGCGGCCCCUGUCAGAUUCUGGUGAAUCUGCGAAUUCUGCUGU [G5U A10U],0.581
9,GGGGCCCACAGCAGAAGCGUUCACGUCGCGGCCCCUGUCAGAUUCUGGUGAAUCAGCGAAUUCUGCUGU [G5C U55A],0.192
10,GGGGCCCACAGCAGAAGCGUUCACGUCGCGGCCCCUGUCAGAUUCUGGUGAAUCUGCGAAUUCUGCUGG [G5C U69G],0.437
11,GGGGCCCACAGCAGAAGCGUUCACGUCGCGGCCCCUGUCAGAUUCUGGUGAAUCUGCGAAUUCUGCUGA [G5C U69A],0.307
12,GGGGCCCACAGCAGAAGCGUUCACGUCGCGGCCCCUGUCAGAUUCUGGUGAAUCUGCGAAUACUGCUGU [G5C U62A],0.169
13,GGGGUCCACAGCAGAAGCGUUCACGUCGCGGCCCGUGUCAGAUUCUGGUGAAUCUGCGAAUUCUGCUGU [G5U C35G],0.08
14,GGGGCCCACAGCAGAAGCGUUCACGUCGCGGCCCCUGUCAGAUUCCGGUGAAUCUGCGAAUUCUGCUGU [G5C U46C],0.267
15,GGGGCCCACAGCAGAAGCGUUCACGUCGCGGCCCCUGUCAGAUUCAGGUGAAUCUGCGAAUUCUGCUGU [G5C U46A],0.265
16,GGGGUCCACAGCAGAAGCGUUCACGUCGCGGCCCCUGUCAGAUUCUGGUGAUUCUGCGAAUUCUGCUGU [G5U A52U],0.232
17,GGGGUCCACAGCAGAAGCGUUCACGUCGCGGCCCCUGUCAGAUUCUGGUGAGUCUGCGAAUUCUGCUGU [G5U A52G],0.266
18,GGGGUCCACAGCAGAAGCGUUCACGUCGCGGCCCCUGUCAGAUUCUGGUGGAUCUGCGAAUUCUGCUGU [G5U A51G],0.198
19,GGGGUCCACAGCAGAAGCGUUCACGUCGCGGCCCCUGUCAGAUUCUGGUGUAUCUGCGAAUUCUGCUGU [G5U A51U],0.236
